From patent US20050037969A1 (ARBOR VITA, published 2005)
Ends that are not written are not given here. * marks the point of attachment. Biotin = O=C1N[C@H]2[C@H](CS[C@H]2CCCCC(=O)*)N1

T1: GST-TAX-IP2 PDZ domain fusion protein (human, UniProt O14908 129-216)
T1 construct: also called TAX-1P2; TAX2; not shown: glutathione S-transferase encoded by vector pGEX-3X (Pharmacia)
T1 chain: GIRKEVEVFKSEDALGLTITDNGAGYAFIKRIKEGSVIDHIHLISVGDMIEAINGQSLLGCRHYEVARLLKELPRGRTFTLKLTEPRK

T2: GST-KIAA0303 PDZ domain fusion protein (Homo sapiens (Human), UniProt O15021 1138-1228)
T2 construct: also called K303; not shown: glutathione S-transferase encoded by vector pGEX-3X (Pharmacia)
T2 sequence: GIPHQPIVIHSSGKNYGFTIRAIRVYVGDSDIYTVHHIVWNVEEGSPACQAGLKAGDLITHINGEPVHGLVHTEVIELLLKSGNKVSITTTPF

T3: GEF PDZ-GST fusion protein (Homo sapiens (Human), UniProt Q8TEU7 293-400)
T3 construct: The label GEF is not explained in the excerpts
T3 sequence: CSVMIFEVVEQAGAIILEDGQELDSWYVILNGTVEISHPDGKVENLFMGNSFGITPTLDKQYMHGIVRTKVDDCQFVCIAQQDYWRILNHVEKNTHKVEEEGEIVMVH

T4: X11β PDZ-GST fusion protein (Rattus norvegicus (Rat), UniProt O35431 560-745)
T4 construct: Order of GST and PDZ part and limits not seen in the excerpts
T4 chain: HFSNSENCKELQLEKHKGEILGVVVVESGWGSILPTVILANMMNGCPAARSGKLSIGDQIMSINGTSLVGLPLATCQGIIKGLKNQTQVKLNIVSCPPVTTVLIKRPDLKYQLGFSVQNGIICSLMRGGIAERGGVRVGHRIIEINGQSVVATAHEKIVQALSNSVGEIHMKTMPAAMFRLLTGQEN

T5: GST-LIM protein PDZ domain fusion protein (Human, UniProt Q96HC4 2-85)
T5 construct: also called Human LIM protein; not shown: glutathione S-transferase encoded by vector pGEX-3X (Pharmacia)
T5 sequence: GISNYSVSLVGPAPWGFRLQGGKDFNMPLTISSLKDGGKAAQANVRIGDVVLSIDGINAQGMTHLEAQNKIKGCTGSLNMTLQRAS

T6: K559 PDZ-GST fusion protein (Homo sapiens (Human), UniProt Q9Y6V0 4489-4593)
T6 construct: Order of GST and PDZ part and limits not seen in the excerpts
T6 sequence: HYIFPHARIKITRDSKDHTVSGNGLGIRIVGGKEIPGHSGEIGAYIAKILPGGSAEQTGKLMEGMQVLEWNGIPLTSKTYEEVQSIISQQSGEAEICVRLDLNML

T7: GST-mouse syntenin fusion protein (Mus musculus, UniProt O08992 108-286)
T7 construct: also called Mus musculus Syntenin; not shown: glutathione S-transferase encoded by vector pGEX-3X (Pharmacia)
T7 chain: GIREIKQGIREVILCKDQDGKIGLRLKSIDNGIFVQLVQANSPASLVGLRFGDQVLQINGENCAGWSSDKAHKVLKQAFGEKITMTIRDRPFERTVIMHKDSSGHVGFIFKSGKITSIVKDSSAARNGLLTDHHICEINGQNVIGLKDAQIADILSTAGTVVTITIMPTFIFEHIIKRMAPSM

T8: GST-DVL1 PDZ domain fusion protein (human, UniProt O14640 247-339)
T8 construct: also called human dishevelled segment polarity protein homolog; not shown: glutathione S-transferase encoded by vector pGEX-3X (Pharmacia)
T8 sequence: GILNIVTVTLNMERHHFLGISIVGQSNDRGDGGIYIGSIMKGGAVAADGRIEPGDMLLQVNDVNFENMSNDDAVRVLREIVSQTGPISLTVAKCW

T9: GST-DLG5 (p-dlg) PDZ domain fusion protein (Human, UniProt Q8TDM6 1343-1583)
T9 construct: also called Human discs large protein p-dlg; not shown: glutathione S-transferase encoded by vector pGEX-3X (Pharmacia)
T9 sequence: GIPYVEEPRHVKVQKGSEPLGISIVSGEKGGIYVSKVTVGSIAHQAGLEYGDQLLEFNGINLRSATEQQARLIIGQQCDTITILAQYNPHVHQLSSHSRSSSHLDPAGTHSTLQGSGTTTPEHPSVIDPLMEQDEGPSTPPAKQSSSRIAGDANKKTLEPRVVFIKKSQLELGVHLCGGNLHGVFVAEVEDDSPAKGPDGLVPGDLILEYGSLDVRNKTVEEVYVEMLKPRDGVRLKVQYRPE

T10: GST-TAX-IP40 PDZ domain fusion protein (human, UniProt Q6B4M5 150-252 (rat entry))
T10 construct: also called TAX40; not shown: glutathione S-transferase encoded by vector pGEX-3X (Pharmacia)
T10 sequence: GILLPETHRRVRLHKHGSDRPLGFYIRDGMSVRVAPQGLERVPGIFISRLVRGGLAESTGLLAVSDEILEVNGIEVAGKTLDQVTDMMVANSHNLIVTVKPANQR

T11: GST-cytohesin binding protein PDZ domain fusion protein (Homo sapiens (Human), UniProt O60759 74-165)
T11 construct: also called CBP; not shown: glutathione S-transferase encoded by vector pGEX-3X (Pharmacia)
T11 sequence: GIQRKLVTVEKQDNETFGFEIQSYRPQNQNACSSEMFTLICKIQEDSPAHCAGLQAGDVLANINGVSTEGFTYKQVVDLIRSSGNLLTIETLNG

T12: SP short PDZ-GST fusion protein (Homo sapiens (Human), UniProt O43464 350-435)
T12 construct: The label SP short is not explained in the excerpts
T12 sequence: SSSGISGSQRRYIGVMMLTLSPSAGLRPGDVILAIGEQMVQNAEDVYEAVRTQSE

T13: TAX-IP33 PDZ-GST fusion protein (Homo sapiens (Human), UniProt O14910 103-193)
T13 construct: Order of GST and PDZ part and limits not seen in the excerpts
T13 sequence: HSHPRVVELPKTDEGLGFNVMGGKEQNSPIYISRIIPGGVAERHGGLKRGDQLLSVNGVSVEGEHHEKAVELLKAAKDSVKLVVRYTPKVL

T14: GST-CASK PDZ domain fusion protein (Homo sapiens, UniProt O14936 486-575)
T14 construct: also called Homo sapiens CASK protein
T14 sequence: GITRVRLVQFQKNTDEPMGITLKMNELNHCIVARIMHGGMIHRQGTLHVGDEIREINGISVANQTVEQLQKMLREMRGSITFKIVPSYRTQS


Assays:
Assay in all cases: A/G assays
[1] = target: T1, GST-TAX-IP2 PDZ domain fusion protein
[2] = target: T2, GST-KIAA0303 PDZ domain fusion protein
[3] = target: T3, GEF PDZ-GST fusion protein
[4] = target: T4, X11β PDZ-GST fusion protein
[5] = target: T5, GST-LIM protein PDZ domain fusion …
[6] = target: T6, K559 PDZ-GST fusion protein
[7] = target: T7, GST-mouse syntenin fusion protein
[8] = target: T8, GST-DVL1 PDZ domain fusion protein
[9] = target: T9, GST-DLG5 (p-dlg) PDZ domain fusion …
[10] = target: T10, GST-TAX-IP40 PDZ domain fusion protein
[11] = target: T11, GST-cytohesin binding protein PDZ …
[12] = target: T12, SP short PDZ-GST fusion protein
[13] = target: T13, TAX-IP33 PDZ-GST fusion protein
[14] = target: T14, GST-CASK PDZ domain fusion protein

| binding result [1] | binding result [2] | binding result [3] | binding result [4] | binding result [5] | binding result [6] | binding result [7] | binding result [8] | binding result [9] | binding result [10] | binding result [11] | binding result [12] | binding result [13] | binding result [14] | Binder |
| --- | --- | --- | --- | --- | --- | --- | --- | --- | --- | --- | --- | --- | --- | --- |
| no binding | no binding | no binding | no binding | no binding | no binding | no binding | no binding | no binding | no binding | no binding | no binding | no binding | no binding | Biotin-QATSENGHSARQHVVADTEL [CD34 C-terminal peptide AA7L, biotinylated] |
| no binding | no binding | no binding | no binding | no binding | no binding | no binding | no binding | no binding | no binding | no binding | no binding | no binding | no binding | Biotin-AWDDSARAAGGQGLHVTAL [LPAP C-terminal peptide AA30L, biotinylated] |
| no binding | no binding | no binding | no binding | no binding | no binding | no binding | no binding | no binding | no binding | no binding | no binding | no binding | no binding | Biotin-KDSRPSFVGSSSGHTSTTL (also called CDW128E (IL8RB)) [CDW128B (IL8RB) C-terminal peptide AA29.2L, biotinylated] |
| no binding | no binding | no binding | no binding | no binding | no binding | no binding | no binding | no binding | no binding | no binding | no binding | no binding | no binding | Biotin-QGDPALQDAGDSSRKEYFI (also called GC) [Glycophorin C C-terminal peptide AA37L, biotinylated] |
| no binding | no binding | no binding | no binding | no binding | no binding | no binding | no binding | no binding | no binding | no binding | no binding | no binding | no binding | Biotin-KENDYESISDLQQGRDITRL (also called Phosphoprotein Associated with GEMs) [PAG C-terminal peptide AA58L, biotinylated] |
| no binding | no binding | no binding | no binding | no binding | no binding | no binding | no binding | no binding | no binding | no binding | no binding | no binding | no binding | Biotin-EVICYIEKPGVETLEDSVF [CDW125 (IL5R) C-terminal peptide AA28L, biotinylated] |
| no binding | no binding | no binding | no binding | no binding | no binding | no binding | no binding | no binding | no binding | no binding | no binding | no binding | no binding | Biotin-SMQPDNSSDSDYDLHGAQRL (Only the last four residues are seen in the excerpts) [CD5 C-terminal peptide AA49L] |
| no binding | no binding | no binding | no binding | no binding | no binding | no binding | no binding | no binding | no binding | no binding | no binding | no binding | no binding | Biotin-ISGTPTSTMVHGMTSSSSVV [Clasp-2 C-terminal peptide AA2L, biotinylated] |
